Data taken from US20160319041.

T1: rNFH-SA (engineered protein with residues 426-1066 of the rat NF-H sidearm domain, N-terminal tetra-Cys tag, C-terminal poly-His-Asn tag)
T1 sequence: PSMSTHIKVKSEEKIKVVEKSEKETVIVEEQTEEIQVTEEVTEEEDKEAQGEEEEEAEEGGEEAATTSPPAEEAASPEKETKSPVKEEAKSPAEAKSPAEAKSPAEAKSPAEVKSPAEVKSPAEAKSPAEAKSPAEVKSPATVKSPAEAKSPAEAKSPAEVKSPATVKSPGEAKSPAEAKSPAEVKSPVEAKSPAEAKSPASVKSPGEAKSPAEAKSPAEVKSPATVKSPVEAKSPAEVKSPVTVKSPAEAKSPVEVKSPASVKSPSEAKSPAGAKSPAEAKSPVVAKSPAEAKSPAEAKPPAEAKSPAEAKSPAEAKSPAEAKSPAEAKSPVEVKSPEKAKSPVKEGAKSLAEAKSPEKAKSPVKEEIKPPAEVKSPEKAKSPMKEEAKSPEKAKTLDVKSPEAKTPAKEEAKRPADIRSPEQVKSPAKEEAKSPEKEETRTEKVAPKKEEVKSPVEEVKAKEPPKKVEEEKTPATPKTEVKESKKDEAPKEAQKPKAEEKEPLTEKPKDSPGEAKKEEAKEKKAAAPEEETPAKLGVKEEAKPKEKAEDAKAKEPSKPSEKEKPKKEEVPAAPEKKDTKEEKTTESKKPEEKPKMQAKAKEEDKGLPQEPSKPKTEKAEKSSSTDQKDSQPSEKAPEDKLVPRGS

T2: rNFH-SA (engineered protein with residues 426-1066 of the rat NF-H sidearm domain, N-terminal tetra-Cys tag, C-terminal poly-His-Asn tag)
T2 chain: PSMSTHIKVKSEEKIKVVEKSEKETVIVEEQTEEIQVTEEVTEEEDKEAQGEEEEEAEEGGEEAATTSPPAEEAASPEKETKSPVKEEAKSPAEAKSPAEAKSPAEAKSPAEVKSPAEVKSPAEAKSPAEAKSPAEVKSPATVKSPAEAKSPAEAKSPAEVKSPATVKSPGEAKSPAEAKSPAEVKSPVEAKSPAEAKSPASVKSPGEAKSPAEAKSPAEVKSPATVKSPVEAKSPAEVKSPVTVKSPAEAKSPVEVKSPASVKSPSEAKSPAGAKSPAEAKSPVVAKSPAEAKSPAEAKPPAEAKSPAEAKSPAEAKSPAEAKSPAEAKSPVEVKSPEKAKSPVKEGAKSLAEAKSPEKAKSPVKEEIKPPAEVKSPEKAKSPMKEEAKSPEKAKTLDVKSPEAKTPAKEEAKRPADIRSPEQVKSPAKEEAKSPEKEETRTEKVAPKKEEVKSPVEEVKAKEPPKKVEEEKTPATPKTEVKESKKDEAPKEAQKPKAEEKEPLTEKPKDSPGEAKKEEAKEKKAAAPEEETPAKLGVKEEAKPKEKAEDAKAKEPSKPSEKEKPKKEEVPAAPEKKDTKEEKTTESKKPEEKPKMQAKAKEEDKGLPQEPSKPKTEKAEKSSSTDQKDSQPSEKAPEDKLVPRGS

B1: clostripain (protein)
chain: NKNQKVTIMYYCDADNNLEGSLLNDIEEMKTGYKDSPNLNLIALVDRSPRYSSDEKVLGEDFSDTRLYKIEHNKANRLDGKNEFPEISTTSKYEANMGDPEVLKKFIDYCKSNYEADKYVLIMANHGGGAREKSNPRLNRAICWDDSNLDKNGEADCLYMGEISDHLTEKQSVDLLAFDACLMGTAEVAYQYRPGNGGFSADTLVASSPVVWGPGFKYDKIFDRIKAGGGTNNEDDLTLGGKEQNFDPATITNEQLGALFVEEQRDSTHANGRYDQHLSFYDLKKAESVKRAIDNLAVNLSNENKKSEIEKLRGSGIHTDLMHYFDEYSEGEWVEYPYFDVYDLCEKINKSENFSSKTKDLASNAMNKLNEMIVYSFGDPSNNFKEGKNGLSIFLPNGDKKYSTYYTSTKIPHWTMQSWYNSIDTVKYGLNPYGKLSWCKDGQDPEINKVGNWFELLDSWFDKTNDVTGGVNHYQW

Key:
[1] = system: T1, rNFH-SA (engineered protein with residues 426-1066 of the rat NF-H sidearm domain, N-terminal tetra-Cys tag, C-terminal poly-His-Asn tag)
[2] = target: T2, rNFH-SA (engineered protein with …)

Molecule	loss of HN-tag immunofluorescence; brush height by AFM [1]	loss of HN-tag immunofluorescence [2]	reduction of brush height by AFM [2]
thrombin	addition of thrombin produced a loss of fluorescence (indicating successful enzymatic cleavage) without producing a significant change in brush height by AFM		
B1		addition of clostripain produced the same loss of fluorescence	reducing brush height by 20%
